In article doi:10.1101/639948 (bioRxiv, 2019):

Biological target: native Miro2 (UniProt Q8JZN7 1-620)
Assay: proximity ligation

Sequence of native Miro2 (Q8JZN7 whole entry): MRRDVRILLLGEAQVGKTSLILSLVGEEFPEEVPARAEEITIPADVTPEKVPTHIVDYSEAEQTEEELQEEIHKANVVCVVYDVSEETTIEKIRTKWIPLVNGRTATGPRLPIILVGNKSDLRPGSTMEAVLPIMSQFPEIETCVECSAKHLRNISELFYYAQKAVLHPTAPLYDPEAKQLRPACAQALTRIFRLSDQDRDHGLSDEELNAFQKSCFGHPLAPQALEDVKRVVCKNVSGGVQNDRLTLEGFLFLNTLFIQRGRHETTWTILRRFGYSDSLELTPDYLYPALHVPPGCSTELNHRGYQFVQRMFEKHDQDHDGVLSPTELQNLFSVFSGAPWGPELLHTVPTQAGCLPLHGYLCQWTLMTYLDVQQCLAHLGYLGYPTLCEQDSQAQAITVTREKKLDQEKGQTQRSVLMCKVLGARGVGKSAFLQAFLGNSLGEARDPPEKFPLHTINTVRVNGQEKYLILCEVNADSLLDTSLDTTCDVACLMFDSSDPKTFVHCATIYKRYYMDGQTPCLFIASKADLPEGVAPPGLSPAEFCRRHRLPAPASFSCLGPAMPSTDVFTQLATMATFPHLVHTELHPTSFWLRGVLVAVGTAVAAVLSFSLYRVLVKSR

B1: Sam50 (natural protein)
chain: MGTVHARSLEPLPSSGTDFGALGEEAEFVEVEPEAKQEILENKDVVVQHVHFDGLGRTKDDIIICEIGEVFKAKNLIEVMRRSHEAREKLLRLGIFRQVDVLIDTCHGEDALPNGLDVTFEVTELRRLTGSYNTMVGNNEGSMVLGLKLPNLLGRAEKVTFQFSYGTKETSYGLSFFKPQPGNFERNFSVNLYKVTGQFPWSSLRETDRGVSAEYSFPLWKTSHTVKWEGVWRELGCLSRTASFAVRKESGHSLKSSLSHAMVIDSRNSSILPRRGALFKVNQELAGYTGGDVSFIKEDFELQLNKPLALDSVFSTSLWGGMLVPIGDKPSSIADRFYLGGPTSVRGFSMHSIGPQSEGDYLGGEAYWAGGLHLYTPLPFRPGQGGFGELFRTHFFLNAGNLCNLNYGEGPKAHIRKLAECIRWSYGAGVVLRLGNIARLELNYCIPMGVQGGDRICDGVQFGAGIRFL
For B1, the “fold enrichment of PLA signal over single antibodies” value was 4 fold.

B2: Mic19/CHCHD3 (natural protein)
chain: MGGTASTRRVTFEADENENITVVKGIRLSENVIDRMKESSPSGSKSQRYSSVYGASVSDEDLKRRVAEELALEQAKKESEHQRRLKQARDLERERAAANEQLTRAVLRERISSEEERMKAKHLARQLEEKDRVMRKQDAFYKEQLARLEERSSEFYKVTTEEYQKAAEEVEAKFKRYEYHPVCADLQTKILQCYRQNTQQTLSCSALASQYMHCVNHAKQSMLEKGG
With B2 the “fold enrichment of PLA signal over single antibodies” value was 4 fold.
